Reference: paper doi:10.1101/2024.05.10.593590

Experiments:
Experiment in all cases: fluorescence anisotropy
[1] = target: U(702-825) (human, UniProt Q00839)
[2] = target: U(702-809) (human, UniProt Q00839 702-809)
[3] = target: U(702-777) (human, UniProt Q00839 702-777)
[4] = target: T1, RGG1 (minimal first RGG/RG motif) (human, UniProt Q00839 702-745)
T1 chain: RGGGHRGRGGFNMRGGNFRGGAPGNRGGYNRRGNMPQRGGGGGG

[5] = target: U(702-793) (human, UniProt Q00839 702-793)
[6] = target: U(702-761) (human, UniProt Q00839 702-761)
[7] = target: T2, U(702-745) (human, UniProt Q00839 702-745)
T2 chain: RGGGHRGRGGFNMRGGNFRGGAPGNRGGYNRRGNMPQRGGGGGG

[8] = target: U-CTD (hnRNP U RBD) (human, UniProt Q00839 673-825)
Chain of U-CTD (hnRNP U RBD) (Q00839 673-825): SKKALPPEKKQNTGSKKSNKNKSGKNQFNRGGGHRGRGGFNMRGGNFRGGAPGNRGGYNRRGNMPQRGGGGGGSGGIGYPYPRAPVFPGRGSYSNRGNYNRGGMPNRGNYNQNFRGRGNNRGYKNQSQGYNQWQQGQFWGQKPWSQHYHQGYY

Chain of U(702-793) (Q00839 702-793): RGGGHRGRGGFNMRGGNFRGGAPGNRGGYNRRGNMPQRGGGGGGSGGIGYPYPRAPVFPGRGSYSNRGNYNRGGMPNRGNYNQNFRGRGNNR
Chain of U(702-809) (Q00839 702-809): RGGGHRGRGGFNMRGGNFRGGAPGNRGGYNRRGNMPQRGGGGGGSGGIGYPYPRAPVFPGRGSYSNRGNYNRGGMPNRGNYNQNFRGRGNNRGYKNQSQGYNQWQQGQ
Chain of U(702-825) (Q00839 702-825): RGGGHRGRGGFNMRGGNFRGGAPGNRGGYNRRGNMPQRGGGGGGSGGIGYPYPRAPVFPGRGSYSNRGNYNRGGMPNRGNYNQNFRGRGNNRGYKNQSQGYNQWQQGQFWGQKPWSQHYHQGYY
Chain of U(702-777) (Q00839 702-777): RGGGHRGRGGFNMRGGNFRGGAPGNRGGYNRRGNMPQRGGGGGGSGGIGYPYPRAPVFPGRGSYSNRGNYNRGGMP

B1: Syncrip (structured_RNA)
RNA: GAGGGAGGGGAGGGAAGGGAAGGGAAGGGAAGGGGGGGUCACGCGGGGGCGCGCGCGCGCACCGGGAGCGCGCUCGGAGGCGAGUGGAACUGGAUCGGGUUUGCUGCCAGCGGCGUGAGCUUC
Kd [1]: 70 ± 19 nM | Kd [2]: 140 ± 50 nM | Kd [3]: 0.45 ± 0.16 µM | Kd [4]: ~1000 nM | Kd [5]: 180 ± 50 nM | Kd [6]: 1100 ± 400 nM | Kd [7]: 910 ± 150 nM

B2: Antisense Syncrip (structured_RNA)
RNA: GAAGCUCACGCCGCUGGCAGCAAACCCGAUCCAGUUCCACUCGCCUCCGAGCGCGCUCCCGGUGCGCGCGCGCGCCCCCGCGUGACCCCCCCUUCCCUUCCCUUCCCUUCCCUCCCCUCCCUC
Kd [1]: 570 ± 10 nM | Kd [2]: 1600 ± 100 nM | Kd [3]: 14 ± 2 µM | Kd [5]: 3000 ± 200 nM

B3: MTRNR2L6 (structured_RNA)
RNA: GCUAUACAUAUAUUGACCCAAUAAUUUGAUCAACGGAACAAGUUACCCUAGGGAUAACAGCGCAAUCCUAUUCUAGAGUCCAUAUUGACAAUAGGGUUUACGACCUCGAUGUUGGAUCAGGACAUCCUAAUGGUGUAGC
Kd [1]: 220 ± 10 nM | Kd [2]: 710 ± 10 nM | Kd [3]: 4.2 ± 0.5 µM | Kd [5]: 1100 ± 100 nM

B4: Antisense MTRNR2L6 (structured_RNA)
RNA: GGCUACACCAUUAGGAUGUCCUGAUCCAACAUCGAGGUCGUAAACCCUAUUGUCAAUAUGGACUCUAGAAUAGGAUUGCGCUGUUAUCCCUAGGGUAACUUGUUCCGUUGAUCAAAUUAUUGGGUCAAUAUAUGUAUAG
Kd [1]: 450 ± 10 nM | Kd [2]: 810 ± 60 nM | Kd [3]: 3.9 ± 0.9 µM | Kd [5]: 1200 ± 100 nM

GAGGGAGGGGAGGGAAGGGAAGGGAAGGGAAGGGGGGGAAACUUC (structured_RNA) [Syncrip G-quad]
Kd [4]: ~1000 nM

GUGCUAAGACUAAACAAGUUUAAGC (ssRNA) [MTRNR2L6 sense 25 nt]
apparent K (half saturation) [8]: 4900 ± 700 nM

GUGCUAAGACUAAACAAGUUUAAGCGAAUUACUAUACAUAUAUUGACCCA (ssRNA) [MTRNR2L6 sense 50 nt]
apparent K (half saturation) [8]: 1000 ± 100 nM

GCUUAAACUUGUUUAGUCUUAGCAC (ssRNA) [MTRNR2L6 antisense 25 nt]
apparent K (half saturation) [8]: 6000 ± 300 nM

GGGGUCAAUAUAUGUAUAGUAAUUCGCUUAAACUUGUUUAGUCUUAGCAC (ssRNA) [MTRNR2L6 antisense 50 nt]
apparent K (half saturation) [8]: 480 ± 40 nM

B5: MTRNR2L6 antisense 75 nt (ssRNA)
RNA: GAACUUGUUCCGUUGAUCAAAUUAUUGGGUCAAUAUAUGUAUAGUAAUUCGCUUAAACUUGUUUAGUCUUAGCAC
apparent K (half saturation) [8]: 410 ± 30 nM

B6: MTRNR2L6 antisense 100 nt (ssRNA)
RNA: GAGGAUUGCGCUGUUAUCCCUAGGGUAACUUGUUCCGUUGAUCAAAUUAUUGGGUCAAUAUAUGUAUAGUAAUUCGCUUAAACUUGUUUAGUCUUAGCAC
apparent K (half saturation) [8]: 280 ± 20 nM

B7: MTRNR2L6 antisense 150 nt (ssRNA)
RNA: GUGAUCCAACAUCGAGGUCGUAAACCCUAUUGUCAAUAUGGACUCUAGAAUAGGAUUGCGCUGUUAUCCCUAGGGUAACUUGUUCCGUUGAUCAAAUUAUUGGGUCAAUAUAUGUAUAGUAAUUCGCUUAAACUUGUUUAGUCUUAGCAC
apparent K (half saturation) [8]: 190 ± 10 nM

B8: MTRNR2L6 antisense 200 nt (ssRNA)
RNA: GAAUCAUUGAACAAAUGAACCCUUGAUAGCAGCUACACCAUUAGGAUGUCCUGAUCCAACAUCGAGGUCGUAAACCCUAUUGUCAAUAUGGACUCUAGAAUAGGAUUGCGCUGUUAUCCCUAGGGUAACUUGUUCCGUUGAUCAAAUUAUUGGGUCAAUAUAUGUAUAGUAAUUCGCUUAAACUUGUUUAGUCUUAGCAC
apparent K (half saturation) [8]: 230 ± 10 nM

B9: MTRNR2L6 antisense 250 nt (ssRNA)
RNA: GUGUACCAGACCUGGCUUGCUCCGGUCUGAACUCAGACCACGUAGGACUUUAAUCAUUGAACAAAUGAACCCUUGAUAGCAGCUACACCAUUAGGAUGUCCUGAUCCAACAUCGAGGUCGUAAACCCUAUUGUCAAUAUGGACUCUAGAAUAGGAUUGCGCUGUUAUCCCUAGGGUAACUUGUUCCGUUGAUCAAAUUAUUGGGUCAAUAUAUGUAUAGUAAUUCGCUUAAACUUGUUUAGUCUUAGCAC
apparent K (half saturation) [8]: 110 ± 10 nM

B10: MTRNR2L6 antisense 300 nt (ssRNA)
RNA: GUUGUUUUAAAAAGACUUAUAGAUGGGAGGUGUGGAGGACUUAAAUACACAUGUACCAGACCUGGCUUGCUCCGGUCUGAACUCAGACCACGUAGGACUUUAAUCAUUGAACAAAUGAACCCUUGAUAGCAGCUACACCAUUAGGAUGUCCUGAUCCAACAUCGAGGUCGUAAACCCUAUUGUCAAUAUGGACUCUAGAAUAGGAUUGCGCUGUUAUCCCUAGGGUAACUUGUUCCGUUGAUCAAAUUAUUGGGUCAAUAUAUGUAUAGUAAUUCGCUUAAACUUGUUUAGUCUUAGCAC
apparent K (half saturation) [8]: 110 ± 10 nM

B11: MTRNR2L6 sense 75 nt (ssRNA)
RNA: GUGCUAAGACUAAACAAGUUUAAGCGAAUUACUAUACAUAUAUUGACCCAAUAAUUUGAUCAACGGAACAAGUUA
apparent K (half saturation) [8]: 320 ± 30 nM

B12: MTRNR2L6 sense 100 nt (ssRNA)
RNA: GUGCUAAGACUAAACAAGUUUAAGCGAAUUACUAUACAUAUAUUGACCCAAUAAUUUGAUCAACGGAACAAGUUACCCUAGGGAUAACAGCGCAAUCCUA
apparent K (half saturation) [8]: 150 ± 20 nM

B13: MTRNR2L6 sense 150 nt (ssRNA)
RNA: GUGCUAAGACUAAACAAGUUUAAGCGAAUUACUAUACAUAUAUUGACCCAAUAAUUUGAUCAACGGAACAAGUUACCCUAGGGAUAACAGCGCAAUCCUAUUCUAGAGUCCAUAUUGACAAUAGGGUUUACGACCUCGAUGUUGGAUCAG
apparent K (half saturation) [8]: 130 ± 10 nM

B14: MTRNR2L6 sense 200 nt (ssRNA)
RNA: GUGCUAAGACUAAACAAGUUUAAGCGAAUUACUAUACAUAUAUUGACCCAAUAAUUUGAUCAACGGAACAAGUUACCCUAGGGAUAACAGCGCAAUCCUAUUCUAGAGUCCAUAUUGACAAUAGGGUUUACGACCUCGAUGUUGGAUCAGGACAUCCUAAUGGUGUAGCUGCUAUCAAGGGUUCAUUUGUUCAAUGAUUA
apparent K (half saturation) [8]: 210 ± 20 nM

B15: MTRNR2L6 sense 250 nt (ssRNA)
RNA: GUGCUAAGACUAAACAAGUUUAAGCGAAUUACUAUACAUAUAUUGACCCAAUAAUUUGAUCAACGGAACAAGUUACCCUAGGGAUAACAGCGCAAUCCUAUUCUAGAGUCCAUAUUGACAAUAGGGUUUACGACCUCGAUGUUGGAUCAGGACAUCCUAAUGGUGUAGCUGCUAUCAAGGGUUCAUUUGUUCAAUGAUUAAAGUCCUACGUGGUCUGAGUUCAGACCGGAGCAAGCCAGGUCUGGUACAU
apparent K (half saturation) [8]: 100 ± 10 nM

B16: MTRNR2L6 sense 300 nt (ssRNA)
RNA: GUGCUAAGACUAAACAAGUUUAAGCGAAUUACUAUACAUAUAUUGACCCAAUAAUUUGAUCAACGGAACAAGUUACCCUAGGGAUAACAGCGCAAUCCUAUUCUAGAGUCCAUAUUGACAAUAGGGUUUACGACCUCGAUGUUGGAUCAGGACAUCCUAAUGGUGUAGCUGCUAUCAAGGGUUCAUUUGUUCAAUGAUUAAAGUCCUACGUGGUCUGAGUUCAGACCGGAGCAAGCCAGGUCUGGUACAUGUGUAUUUAAGUCCUCCACACCUCCCAUCUAUAAGUCUUUUUAAAACAAA
apparent K (half saturation) [8]: 110 ± 10 nM
